Laboratory results as given in IntAct's records for PubMed 35512704.

B1: Speckle-type POZ protein (Homo sapiens), O43791 (parent)
chain: MSRVPSPPPPAEMSSGPVAESWCYTQIKVVKFSYMWTINNFSFCREEMGEVIKSSTFSSGANDKLKWCLRVNPKGLDEESKDYLSLYLLLVSCPKSEVRAKFKFSILNAKGEETKAMESQRAYRFVQGKDWGFKKFIRRDFLLDEANGLLPDDKLTLFCEVSVVQDSVNISGQNTMNMVKVPECRLADELGGLWENSRFTDCCLCVAGQEFQAHKAILAARSPVFSAMFEHEMEESKKNRVEINDVEPEVFKEMMCFIYTGKAPNLDKMADDLLAAADKYALERLKVMCEDALCSNLSVENAAEILILADLHSADQLKTQAVDFINYHASDVLETSGWKSMVVSHPHLVAEAYRSLASAQCPFLGPPRKRLKQS
partner: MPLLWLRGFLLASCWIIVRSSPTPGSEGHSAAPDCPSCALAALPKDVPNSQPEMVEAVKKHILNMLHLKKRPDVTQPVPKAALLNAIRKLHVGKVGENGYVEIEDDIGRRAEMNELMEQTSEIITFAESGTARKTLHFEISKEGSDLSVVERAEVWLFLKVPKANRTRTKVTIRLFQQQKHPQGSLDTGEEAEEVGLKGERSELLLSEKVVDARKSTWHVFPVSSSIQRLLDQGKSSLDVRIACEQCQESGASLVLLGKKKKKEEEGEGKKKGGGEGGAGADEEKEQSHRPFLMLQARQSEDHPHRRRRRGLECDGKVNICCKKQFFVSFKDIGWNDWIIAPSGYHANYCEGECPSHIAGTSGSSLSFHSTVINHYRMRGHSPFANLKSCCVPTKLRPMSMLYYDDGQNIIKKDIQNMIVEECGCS
B2: Speckle-type POZ protein (Homo sapiens), O43791 (parent)
chain: B1 chain
partner: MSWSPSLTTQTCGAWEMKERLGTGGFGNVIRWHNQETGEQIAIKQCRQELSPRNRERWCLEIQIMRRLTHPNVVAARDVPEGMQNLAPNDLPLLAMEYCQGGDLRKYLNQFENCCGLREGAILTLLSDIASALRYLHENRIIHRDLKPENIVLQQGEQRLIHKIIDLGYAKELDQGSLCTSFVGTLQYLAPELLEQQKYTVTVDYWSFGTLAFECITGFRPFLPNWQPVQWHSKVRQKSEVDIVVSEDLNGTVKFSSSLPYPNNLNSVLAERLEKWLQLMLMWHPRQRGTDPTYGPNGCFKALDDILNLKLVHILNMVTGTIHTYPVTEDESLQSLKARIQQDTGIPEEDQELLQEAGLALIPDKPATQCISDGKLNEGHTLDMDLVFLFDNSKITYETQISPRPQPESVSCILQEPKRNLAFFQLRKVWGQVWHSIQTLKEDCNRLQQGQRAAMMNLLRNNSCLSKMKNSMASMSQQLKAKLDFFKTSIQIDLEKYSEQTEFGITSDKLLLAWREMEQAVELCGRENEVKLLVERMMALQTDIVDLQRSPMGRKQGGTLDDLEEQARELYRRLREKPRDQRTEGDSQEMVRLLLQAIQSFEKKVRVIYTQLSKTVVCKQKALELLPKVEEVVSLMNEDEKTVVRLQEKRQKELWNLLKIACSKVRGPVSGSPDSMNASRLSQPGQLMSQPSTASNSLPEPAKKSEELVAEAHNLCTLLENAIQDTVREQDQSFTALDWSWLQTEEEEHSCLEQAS
B3: Speckle-type POZ protein (Homo sapiens), O43791 (parent)
chain: B1 chain
partner: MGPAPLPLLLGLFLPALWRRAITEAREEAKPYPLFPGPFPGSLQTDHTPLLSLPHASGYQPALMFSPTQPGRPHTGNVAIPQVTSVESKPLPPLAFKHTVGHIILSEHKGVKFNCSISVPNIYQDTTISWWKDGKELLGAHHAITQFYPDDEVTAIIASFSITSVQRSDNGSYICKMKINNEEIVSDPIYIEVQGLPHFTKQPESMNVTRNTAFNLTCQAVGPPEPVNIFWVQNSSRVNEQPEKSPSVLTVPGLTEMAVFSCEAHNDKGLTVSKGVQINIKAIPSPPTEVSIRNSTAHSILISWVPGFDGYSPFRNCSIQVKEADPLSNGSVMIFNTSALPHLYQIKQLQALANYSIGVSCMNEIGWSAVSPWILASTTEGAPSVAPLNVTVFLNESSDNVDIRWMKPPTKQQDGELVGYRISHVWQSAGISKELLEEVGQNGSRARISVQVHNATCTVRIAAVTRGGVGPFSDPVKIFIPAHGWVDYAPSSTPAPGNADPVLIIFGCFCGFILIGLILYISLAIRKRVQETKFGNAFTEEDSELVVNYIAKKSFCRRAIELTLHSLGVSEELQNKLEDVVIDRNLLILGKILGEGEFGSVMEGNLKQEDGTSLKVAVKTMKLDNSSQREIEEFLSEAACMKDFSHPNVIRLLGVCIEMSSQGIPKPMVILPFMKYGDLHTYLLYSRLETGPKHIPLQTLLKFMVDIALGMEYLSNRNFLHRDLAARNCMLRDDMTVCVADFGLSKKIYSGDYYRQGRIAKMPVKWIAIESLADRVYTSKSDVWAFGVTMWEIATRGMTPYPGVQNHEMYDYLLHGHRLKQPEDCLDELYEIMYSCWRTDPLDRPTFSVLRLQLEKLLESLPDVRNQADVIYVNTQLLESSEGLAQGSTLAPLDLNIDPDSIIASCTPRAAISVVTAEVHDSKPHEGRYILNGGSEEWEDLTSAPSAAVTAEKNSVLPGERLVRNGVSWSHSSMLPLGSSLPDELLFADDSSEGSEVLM
B4: Speckle-type POZ protein (Homo sapiens), O43791 (parent)
chain: B1 chain
partner: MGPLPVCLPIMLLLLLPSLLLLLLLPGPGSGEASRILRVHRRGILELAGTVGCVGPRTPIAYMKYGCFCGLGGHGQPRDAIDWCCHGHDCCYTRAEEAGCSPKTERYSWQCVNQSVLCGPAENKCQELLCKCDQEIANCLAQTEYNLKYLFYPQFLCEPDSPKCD
B5: Speckle-type POZ protein (Homo sapiens), O43791 (parent)
chain: B1 chain
partner: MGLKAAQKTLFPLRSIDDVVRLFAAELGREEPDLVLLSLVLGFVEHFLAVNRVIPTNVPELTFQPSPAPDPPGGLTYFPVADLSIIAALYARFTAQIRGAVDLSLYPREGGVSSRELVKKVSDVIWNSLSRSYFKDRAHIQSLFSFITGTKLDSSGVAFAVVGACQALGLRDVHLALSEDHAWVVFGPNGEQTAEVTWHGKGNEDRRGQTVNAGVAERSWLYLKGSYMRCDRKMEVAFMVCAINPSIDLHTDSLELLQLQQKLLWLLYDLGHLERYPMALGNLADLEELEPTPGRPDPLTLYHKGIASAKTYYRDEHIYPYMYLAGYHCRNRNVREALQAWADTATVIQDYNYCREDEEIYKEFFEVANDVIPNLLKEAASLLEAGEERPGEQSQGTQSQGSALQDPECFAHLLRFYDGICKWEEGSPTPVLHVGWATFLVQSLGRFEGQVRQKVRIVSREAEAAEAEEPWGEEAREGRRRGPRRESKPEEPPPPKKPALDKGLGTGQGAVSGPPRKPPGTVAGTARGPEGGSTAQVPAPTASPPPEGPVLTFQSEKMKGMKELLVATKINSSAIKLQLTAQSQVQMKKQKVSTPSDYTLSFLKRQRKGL
B6: Speckle-type POZ protein (Homo sapiens), O43791 (parent)
chain: B1 chain
partner: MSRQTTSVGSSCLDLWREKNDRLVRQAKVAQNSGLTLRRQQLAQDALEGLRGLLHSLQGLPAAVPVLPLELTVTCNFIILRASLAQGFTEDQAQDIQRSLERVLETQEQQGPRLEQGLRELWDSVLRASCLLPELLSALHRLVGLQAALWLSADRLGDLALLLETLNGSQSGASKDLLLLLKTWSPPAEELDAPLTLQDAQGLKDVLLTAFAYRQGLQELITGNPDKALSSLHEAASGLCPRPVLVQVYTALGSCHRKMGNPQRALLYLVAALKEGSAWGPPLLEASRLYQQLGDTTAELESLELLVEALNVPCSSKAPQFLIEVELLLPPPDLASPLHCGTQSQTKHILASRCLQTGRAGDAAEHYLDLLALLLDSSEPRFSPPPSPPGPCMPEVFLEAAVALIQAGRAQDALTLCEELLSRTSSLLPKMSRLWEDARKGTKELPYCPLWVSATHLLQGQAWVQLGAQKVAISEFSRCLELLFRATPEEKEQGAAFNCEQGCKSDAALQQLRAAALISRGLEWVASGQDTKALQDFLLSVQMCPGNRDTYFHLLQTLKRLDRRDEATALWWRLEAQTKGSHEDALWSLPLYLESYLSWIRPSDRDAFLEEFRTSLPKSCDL
B7: Speckle-type POZ protein (Homo sapiens), O43791 (parent)
chain: B1 chain
partner: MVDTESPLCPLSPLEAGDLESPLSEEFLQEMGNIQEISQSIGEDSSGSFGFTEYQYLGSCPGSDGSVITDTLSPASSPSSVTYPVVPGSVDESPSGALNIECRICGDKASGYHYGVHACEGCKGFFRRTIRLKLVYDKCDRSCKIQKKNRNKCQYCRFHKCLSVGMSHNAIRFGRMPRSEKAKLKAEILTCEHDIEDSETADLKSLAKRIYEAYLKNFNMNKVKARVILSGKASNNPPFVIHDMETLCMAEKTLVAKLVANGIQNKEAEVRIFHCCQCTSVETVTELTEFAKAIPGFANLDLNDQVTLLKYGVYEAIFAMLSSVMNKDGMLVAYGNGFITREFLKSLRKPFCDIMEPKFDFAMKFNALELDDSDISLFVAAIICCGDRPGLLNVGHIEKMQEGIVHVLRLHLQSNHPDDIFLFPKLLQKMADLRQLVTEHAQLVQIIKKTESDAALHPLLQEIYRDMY

Variants of: B1
Conditions: with inhba_human INHBA

Variant	effect of a mutation on the interaction
F133V	with no effect

Variants of: B1
Conditions: with inhba_human INHBA
Remark: another data set of the same source

Variant	effect of a mutation on the interaction
F102C	with no effect

Variants of: B2
Conditions: with ikkb_human IKBKB

Variant	effect of a mutation on the interaction
F102C	with no effect

Variants of: B2
Conditions: with ikkb_human IKBKB
Remark: another data set of the same source

Variant	effect of a mutation on the interaction
F133L	with no effect

Variants of: B2
Conditions: with ikkb_human IKBKB
Remark: another data set of the same source

Variant	effect of a mutation on the interaction
F133V	with no effect

Variants of: B2
Conditions: with ikkb_human IKBKB
Remark: another data set of the same source

Variant	effect of a mutation on the interaction
Y87C	with no effect

Variants of: B3
Conditions: with mertk_human MERTK

Variant	effect of a mutation on the interaction
F133V	with no effect

Variants of: B3
Conditions: with mertk_human MERTK
Remark: another data set of the same source

Variant	effect of a mutation on the interaction
F133L	with no effect

Variants of: B3
Conditions: with mertk_human MERTK
Remark: another data set of the same source

Variant	effect of a mutation on the interaction
F102C	with no effect

Variants of: B3
Conditions: with mertk_human MERTK
Remark: another data set of the same source

Variant	effect of a mutation on the interaction
Y87C	with no effect

Variants of: B4
Conditions: with pa2gx_human PLA2G10, O15496

Variant	effect of a mutation on the interaction
Y87C	with no effect

Variants of: B4
Conditions: with pa2gx_human PLA2G10, O15496
Remark: another data set of the same source

Variant	effect of a mutation on the interaction
F133L	with no effect

Variants of: B4
Conditions: with pa2gx_human PLA2G10, O15496
Remark: another data set of the same source

Variant	effect of a mutation on the interaction
F133V	with no effect

Variants of: B4
Conditions: with pa2gx_human PLA2G10, O15496
Remark: another data set of the same source

Variant	effect of a mutation on the interaction
F102C	with no effect

Variants of: B5
Conditions: with men1_human MEN1, O00255

Variant	effect of a mutation on the interaction
F102C	with no effect

Variants of: B5
Conditions: with men1_human MEN1, O00255
Remark: another data set of the same source

Variant	effect of a mutation on the interaction
F133V	with no effect

Variants of: B5
Conditions: with men1_human MEN1, O00255
Remark: another data set of the same source

Variant	effect of a mutation on the interaction
F133L	with no effect

Variants of: B5
Conditions: with men1_human MEN1, O00255
Remark: another data set of the same source

Variant	effect of a mutation on the interaction
Y87C	with no effect

Variants of: B6
Conditions: with fancg_human FANCG

Variant	effect of a mutation on the interaction
Y87C	with no effect

Variants of: B6
Conditions: with fancg_human FANCG
Remark: another data set of the same source

Variant	effect of a mutation on the interaction
F102C	with no effect

Variants of: B6
Conditions: with fancg_human FANCG
Remark: another data set of the same source

Variant	effect of a mutation on the interaction
F133L	with no effect

Variants of: B6
Conditions: with fancg_human FANCG
Remark: another data set of the same source

Variant	effect of a mutation on the interaction
F133V	with no effect

Variants of: B7
Conditions: with ppara_human PPARA

Variant	effect of a mutation on the interaction
Y87C	with no effect
